Reference: patent publication CN105524166A (ATTOBIO (SUZHOU) CO LTD, dated 2016)

Assays:
CaSki细胞表达的HPV16E7蛋白 = molecular target: T1, CaSki细胞表达的HPV16E7蛋白 (human papillomavirus type 16 (HPV16), UniProt P03129 2-98); experiment: immunocytochemistry on fixed, permeabilised CaSki cells
T1 construct: Endogenous, intracellular E7 of CaSki cells, tested in fixed, permeabilised cells (ICC); also called 表达HPV16E7的CaSki细胞; HPV16E7阳性细胞CaSki
T1 sequence: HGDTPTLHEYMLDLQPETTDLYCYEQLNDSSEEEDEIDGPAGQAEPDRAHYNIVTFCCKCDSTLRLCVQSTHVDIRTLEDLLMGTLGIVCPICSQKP

His-HPV18E7融合蛋白 = molecular target: T2, His-HPV18E7融合蛋白 (human papillomavirus type 18 (HPV18), UniProt P06788 1-105); experiment: ELISA by the method of Beatty et al.: His-HPV18E7 coated at 8, 2, 0.5 and 0.125 μg/ml, MAB-F2 in two-fold dilutions from 8 μg/ml, mean of six K values
T2 construct: Recombinant His fusion protein coated on ELISA plates; also called HPV18E7重组蛋白; His-HPV18E7重组蛋白; not shown: His tag
T2 chain: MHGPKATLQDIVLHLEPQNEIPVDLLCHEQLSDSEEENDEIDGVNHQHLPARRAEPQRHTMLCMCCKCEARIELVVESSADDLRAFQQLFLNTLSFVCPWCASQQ

His-HPV16E7融合蛋白 = molecular target: T3, His-HPV16E7融合蛋白 (human papillomavirus type 16 (HPV16), UniProt P03129 2-98); experiment: indirect ELISA, coated His-HPV16E7
T3 construct: Recombinant His fusion protein coated on ELISA plates; also called HPV16E7重组蛋白; His-HPV16E7重组蛋白; not shown: His tag
T3 sequence: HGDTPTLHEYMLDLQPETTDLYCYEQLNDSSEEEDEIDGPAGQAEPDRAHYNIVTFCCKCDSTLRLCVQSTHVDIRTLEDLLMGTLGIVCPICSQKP

B1: HPV18E7单克隆抗体MAB-F2 (antibody, V domains shown)
VH: LVQSGGGSVKPGGSLKLSCAASGFTFNRYDMSWFRQSPEKRLEWVAEIRNDGSKTHYSDTVTGRFTISRDNAKNTLYLEMSSLRSEDTAMYYCTRDSYGTVFAYWGQGTLVTVSA
VL: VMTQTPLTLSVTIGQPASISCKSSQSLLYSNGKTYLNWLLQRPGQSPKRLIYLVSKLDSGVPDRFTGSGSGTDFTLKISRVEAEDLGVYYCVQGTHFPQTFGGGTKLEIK
notes: also called mAb MAB-F2; anti-HPV18E7单抗MAB-F2
B1 was tested, and the binding result (CaSki细胞表达的HPV16E7蛋白) was “no binding (tested: MAB-F2 5μg/ml)”, the Kd (His-HPV18E7融合蛋白) was 2.67 nM and the binding result (His-HPV16E7融合蛋白) was “no binding (tested: MAB-F2 1μg/ml; antigen coated at 2μg/ml)”.
